Laboratory results taken from patent US20230250164A1 (AB2 BIO, published 2023).
Numbering of substitutions follows the chain as printed.

B1: recombinant human IL-18 Binding Protein (IL-18BP) (other)
chain: TPVSQTTTAATASVRSTKDPCPSQPPVFPAAKQCPALEVTWPEVEVPLNGTLSLSCVACSRFPNFSILYWLGNGSFIEHLPGRLWEGSTSRERGSTGTQLCKALVLEQLTPALHSTNFSCVLVDPEQVVQRHVVLAQLWAGLRATLPPTQEALPSSHSSPQQQG
notes: Biotinylated in the second Luminex screening step; also called human IL-18BP; hIL-18BP
B2: Antibody 109A6 (antibody, V domains shown)
VH: EVQLQQSGAELVKPGASVKLSCTASGFKIKDTYIHWVIQRPAQGLEWIGRIDPANGNTIYGSKFQGKATLTADTSSNTAYIHLSSLTSGDSAVYYCAGYVWFAYWGQGTLVTVSA
VL: DVVMTQVPLSLPVSLGDQASISCRSSQRLVHSNGNTYLHWFLQKPGQSPKLLIYTVSNRFSGVPDRFSGSGSGTDFTLKISRVEAEDLGVYFCSQSTLVPWTFGGGTKLEIK
notes: Mouse hybridoma monoclonal antibody
B3: Antibody 131B4 (antibody, V domains shown)
VH: B2 VH with L4V, V37L, I38K, A42E, L70I, H82Q, S91T, Y95F
VL: DAVLTQTPLSLPVSLGDQASISCTSSQSLVHSNGNTYLHWYLQKPGQSPKLLIYKVSDRFSGVPDRFSGSGSGTDFTLMITRVEAEDLGVYFCSQSSLVPWTFGGGTKLEVK
notes: as for B2
B4: Antibody 132H4 (antibody, V domains shown)
VH: EVKLVESGGGLVKPGGSLKLSCAASGFTFSNYAMSWVRQNPAKRLEWVATISSGGANIYYPDSVKGRFIISRDNARNTLYLQMSSLRSEDTAMYYCARGDYFNHFWFAYWGQGTLVTVSA
VL: DVLMTQTPLSLPVSLGDQASISCRSSQSIVHSNGNTYLEWYLQKPGQSPKFLIYKVSNRFSGVPDRFSGSGSGTDFTLKINRVEAEDLGIYYCFQGSHVPWTFGGGTKLEIK
notes: as for B2
B5: Antibody 107C6 (antibody, V domains shown)
VH: QIQLVQSGPELKKPGETVKLSCRASGYTFTNYGMNWVKQAPGKGLKWMGWINTYSGVPTYADDFKGQFAFSLETSAATAFLQINNLKDEDTATYFCAREGYSTTRSMDYWGQGTSVTVSS
VL: DIVMSQSPSSLAVSAGEKVTMSCKSSQSLLDSRTRKNYLVWYQQKPGQSPKLLIYWASTRGSGVPDRFTGSGSGTDFTLTISSVQAEDLAVYYCKQSYNLRTFGGGTKLEIK
notes: Mouse hybridoma monoclonal antibody; also called clone #107C6
B6: monoclonal anti-IL-18 antibody clone 131H1 (antibody)
chain 1: QVQLKQSGPGLVQPSQSLSITCTVSGFSLTSYGVHWVRQSPGKGLEWLGVIWSGGSTDYNAAFISRLSISKDNSKSQVFFKMNSLQADDTAIYYCARSYDYDGRGYFDYWGQGTTLTVSS
chain 2: DIQMTQSPASLSASVGETVTITCRASENVYRYLAWYQQRQGKSPQLLVYSAKTLAEGVPSRFSGSGSGTQFSLKINTLQPEDFGTYYCQHHYNTPLTFGAGTKLELK
chain 3: B5 VL with L30F, D31N, R33K, V40A, Y42F, K51E, G61K, R101W
B7: Antibody 108F8 (antibody, V domains shown)
VH: B5 VH with E10D, L11S
VL: B5 VL
notes: as for B2

Biological target: T1, human interleukin-18 (IL-18), recombinant (human, UniProt Q14116 37-193)
T1 construct: Commercial recombinant human IL-18; also called human IL-18; free IL-18
T1 sequence (looked up): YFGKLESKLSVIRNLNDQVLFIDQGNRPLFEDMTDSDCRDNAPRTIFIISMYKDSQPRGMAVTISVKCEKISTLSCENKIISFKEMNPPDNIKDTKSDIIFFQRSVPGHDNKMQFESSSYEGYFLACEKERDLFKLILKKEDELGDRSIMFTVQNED
Assay: free IL-18 ELISA with IL-18BP capture; 400 pg/mL IL-18 in PBS 5% BSA spiked with IL-18BP
Description: After that, 20 μl sample volume containing biological fluid or standard is dispensed per microplate well. Non-diluted or diluted biological fluid can be but is not restricted to serum, urine, tear, saliva, bile, sweat, exhalation or expiration, sputum, bronchoalveolar fluid, sebum, cellular, gland, mucosa or tissue secretion, biopsy, homogenized tissue. […] The plates are sealed and then incubated under gentle shaking for free IL-18 capture. […] The microplate wells are the washed extensively with the appropriate buffer and then, 100 μl buffer developing mixture is added to each well. The developing mixture contains a streptavidin-conjugated enzyme such as peroxidase or alkaline phosphatase. […] The resulting reactions are then monitored with a microplate reader at an appropriate nanometer wavelength for absorbance or fluorescence of the produced reagent.

| Binder | molar ratio IL-18BP/IL-18 at which free IL-18 is near background [fold] |
| --- | --- |
| B1 | ~15 |

Biological target: T1, human interleukin-18 (IL-18), …
Assay: Luminex, IL-18 on beads, hybridoma antibody
Description: (§1) Mice were vaccinated aginst human interleukin-18 using a technology allowing immunization with properly folded proteins. […] Following immunization, B cells were isolated from spleen and hybridized following standard hybridoma technology. […] The screening was performed in 3 sequential and selective steps: […]

| Binder | fluorescence intensity (monoclonal antibody binding on IL-18) [fluorescence intensity] |
| --- | --- |
| B2 | 25800 |
| B3 | 24800 |
| B4 | 23800 |
| B5 | 26200 |
| B6 | 24800 |
| B7 | 25100 |

Biological target: T2, IL-18/IL-18BP complex (human, UniProt Q14116 37-193)
T2 construct: In the third screening step: Luminex beads linked to IL-18BP and then complexed to IL-18; also called IL-18 previously complexed to IL-18BP; complex IL-18/IL-18BP
T2 sequence 1: T1 sequence (looked up)
T2 sequence 2: B1 chain
Assay: Luminex, beads linked to IL-18BP then complexed to IL-18, antibody binding
Description: as §1

| Binder | fluorescence intensity (monoclonal antibody binding on IL-18 previously complexed to IL-18BP) [fluorescence intensity] |
| --- | --- |
| B2 | 33 |
| B3 | 41 |
| B4 | 28 |
| B5 | 33 |
| B6 | 24 |
| B7 | 45 |

Biological target: T1, human interleukin-18 (IL-18), …
Assay: free IL-18 ELISA with plate-bound IL-18BP as capture; 400 pg/ml IL-18 in PBS with 5% BSA spiked with soluble IL-18BP at 0 to 10000 pg/ml; soluble IL-18BP competes with the capture IL-18BP
Text: Microplates can also be dried in a stabilizing solution allowing storage at room temperature and then be reconstituted by hydration when needed for assay.

| Binder | IC50 (read off the curve) [pg/mL] |
| --- | --- |
| B1 | ~2000 |

Biological target: T1, human interleukin-18 (IL-18), …
Assay: Luminex competition, antibody pre-bound to IL-18 beads, biotinylated IL-18BP as competitor is detected

| Binder | fluorescence intensity (IL-18BP binding on IL-18 previously complexed to monoclonal antibody) [fluorescence intensity] |
| --- | --- |
| B2 | 913 |
| B3 | 1660 |
| B4 | 1490 |
| B5 | 1390 |
| B6 | 1030 |
| B7 | 1290 |

Biological target: T2, IL-18/IL-18BP complex
Assay: Luminex, third screening step against first
Description: as §1

| Binder | fold inhibition (binding on IL-18 complexed to IL-18BP against binding on IL-18) [fold] |
| --- | --- |
| B2 | > 500 |
| B3 | > 500 |
| B4 | > 500 |
| B5 | > 500 |
| B6 | > 500 |
| B7 | > 500 |
